Data from the supplement of paper PMC10567573.

B1: FBXO39 (parent)
chain: RVFKARIYTNRYETNEEDKTLQEI
B2: KLHL14 (parent)
chain: WLYCYDPVMDVWARKQDMNTKRAI

Variants of: B1
Test: protein stability index of a GFP-peptide fusion (GPS, HEK-293T) (PSI 1-6); higher = more stable
Details: c terminus: a fixed tail appended
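Also: lentivirally expressed fusions sorted by FACS into six bins by GFP to DsRed ratio, PSI derived from sequencing read proportions per bin multiplied by bin number.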

Protein stability index: each site, then its substitutions
I24: Q 3.32; R 3.22; M 2.25; N 2.64; C 2.61; P 3.21; W 2.34; H 3.7; Y 3.17; T 2.75; D 3.26; K 2.98; V 3.44; E 3.48; S 3.36; F 2.55
Y12: T 3.29; W 2.34; N 3.13; S 3.36; L 2.1; P 2.91; Q 3.88; M 2.13
D18: V 2.4; C 2.33; M 2.22; P 2.56; R 2.38; S 1.71; Y 2.78; Q 2.78; H 2.16; F 1.67; N 2.25; I 2.68; W 2.18; E 2.48; A 3.19; L 2.46; K 2.7; T 2.36; G 2.53
E16: C 2.38; I 3.1; T 2.28; D 2.88; F 1.45; Q 2.08; Y 1.29; P 1.89; R 2.33; N 1.74; S 2.6; A 2.2; V 1.92; H 2.58; L 1.75; W 2.27; G 2.33
E13: L 3.1; Q 2.98; V 1.99; A 3.08; S 2.81; I 1.92; R 2.79; W 2.53; F 2.07; G 2.81; D 2.48; T 2.15; H 1.85; Y 1.69; K 2.4; M 2.6; N 2
T14: G 2.29; A 1.65; E 2.62; Y 2.67; D 3.34; P 3.2; I 2.28; F 2.52; V 2.06; K 2.5; S 3.12; Q 2.62; R 2.36; L 3.06; W 1.66; N 2.21; M 3.75; C 2; H 2.5
T20: F 2.74; K 2.53; V 3.47; E 2.53; Y 2.17; W 2.49; G 1.79; N 2.57; I 1.76; C 2.55; P 2.73; D 3.48; R 2.77; M 3.06; Q 2.78; A 2.87; S 3.2; L 2.38
Q22: N 2.49; K 2.38; G 3.19; V 1.75; Y 2.6; C 3.48; H 1.64; L 2.33; R 2.91; I 1.4; M 2.5; F 1.76; W 1.79; T 1.98; S 1.12; D 3; A 3.02
L21: C 2.21; W 2.5; H 3.76; P 3.27; A 2.9; S 2.93; E 3.38; G 3.2; M 3.24; T 2.97; Y 1.99; V 2.86; R 2.97; Q 3.18; K 2.5; N 3.26; I 2.62; F 2.52; D 3.88
E23: N 2.15; Q 2.21; I 1.88; W 1.74; C 2.13; K 2.74; F 1.93; L 2.42; H 2.74; G 2.19; S 2.32; V 2.41; D 2.58; M 2.14; R 2.05; T 2.44; P 2.39; Y 2.14
E17: T 2.83; F 1.63; H 2.02; P 2.41; S 2.1; N 1.98; W 2.27; Y 2.72; I 1.59; K 2.24; L 2.41; R 2.43; D 3.12; M 1.89; C 2.03; Q 2.33; G 1.4
N15: W 2.61; P 3.01; Q 2.55; M 3.15; F 1.99; I 2.9; A 2.92; E 2.96; Y 2.06; L 2.27; K 2.28; T 3; C 1.86; V 2.12; G 2.5; D 2.86; H 3.27; S 3.14
K19: Y 2.57; Q 3.23; V 2.62; P 2.91; G 3.62; E 3.84; R 4; W 2.54; N 2.83; H 2.92; T 2.79; C 3.04; S 3.39; A 2.15; M 2.3; F 2.61; I 2.58; L 2.44

Variants of: B2
Test: as above
Details: c terminus: a fixed tail appended

Protein stability index, by site and new letter:
C4: F 1.94; W 2.35; D 2.06; G 2.58; H 2.6; K 2.04; S 2.14; Q 2.31; P 2.51; E 2.41; I 1.96; V 2.08; R 1.63; T 2.84; A 2.34; L 1.61; Y 2.13; N 2.5; M 1.89
L2: Q 2.55; F 1.45; P 2.13; G 2.29; H 2.35; K 2.29; M 1.9; R 2.06; D 2.52; I 1.84; N 2.19; W 1.56; E 2.61; S 2.39; T 2.11; V 2.16; Y 2.52; A 2.24; C 2.18
W1: G 2.4; P 2.88; L 2.53; Y 2.25; Q 3.33; D 4.41; A 2.56; N 3.29; F 1.99; M 2.62; S 3.06; H 3.4; E 3.72; V 1.63; R 2.55; I 1.92; K 2.55; T 3.09; C 2.27
Y3: C 2.64; R 1.25; Q 1.97; D 2.44; H 2.22; T 2.36; M 1.96; G 2.01; I 2.06; E 2.33; N 2.12; W 2.42; L 2.15; K 2.09; A 2.02; P 2.7; S 1.77; F 1.65; V 2.86
D6: Q 2.29; S 1.7; E 1.74; I 1.83; C 2.14; Y 2.54; H 2.6; P 1.84; V 2.23; T 2.47; M 2.33; N 1.78; K 2.11; G 2.9; A 3.01; W 3.19; R 1.4; F 2.99
Y5: C 2.25; N 2.08; I 1.93; R 2.26; A 1.92; P 2.9; D 2.61; W 1.44; E 2.23; L 2.24; K 2.46; V 1.98; Q 1.6; S 2.46; M 1.92; F 2.31; H 1.91; G 2.43; T 1.83
